Assay results reported in patent US8900593B2 (Indiana University Research and Technology Corporation, priority 2007, dated 2014).
Where two headings read alike, the source gives them in different places. Where no end group is shown, it is not given here. [ ]: non-standard residue; d: D form. DMIA = not defined here; PEG = not defined here; Aib = CC(C)(N)C(=O)O

What was measured:
glucagon receptor = target: T1, glucagon receptor (Homo sapiens, UniProt P47871); assay: Functional assay-cAMP synthesis, luciferase reporter in HEK293 cells co-transfected with glucagon receptor; type: cell-based; settings: for Parent w/PEG % Potency Relative to Native GR / Parent w/o PEG % Potency Relative to Native GR: Table 12; for Parent w/PEG % Potency Relative to Native GR: pegylated peptide; for Parent w/o PEG % Potency Relative to Native GR: peptide without PEG; for Percent Potency Relative to Native Ligand GRec: relative to native glucagon
T1 construct: expressed in transfected cells; host or cells: HEK293
T1 sequence (P47871 26-477): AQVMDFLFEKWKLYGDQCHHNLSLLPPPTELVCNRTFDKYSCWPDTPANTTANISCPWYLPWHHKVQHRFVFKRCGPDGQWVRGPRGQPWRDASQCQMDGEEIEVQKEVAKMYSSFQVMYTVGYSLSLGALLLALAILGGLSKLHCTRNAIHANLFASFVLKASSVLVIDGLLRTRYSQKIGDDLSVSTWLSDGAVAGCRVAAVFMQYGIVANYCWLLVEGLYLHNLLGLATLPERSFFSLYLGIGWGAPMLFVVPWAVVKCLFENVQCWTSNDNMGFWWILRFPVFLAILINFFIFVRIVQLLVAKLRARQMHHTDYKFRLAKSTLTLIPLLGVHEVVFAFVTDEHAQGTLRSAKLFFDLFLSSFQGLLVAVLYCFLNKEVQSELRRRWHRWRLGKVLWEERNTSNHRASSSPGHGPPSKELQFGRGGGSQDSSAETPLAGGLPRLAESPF

GLP-1 receptor = target: T2, GLP-1 receptor (Homo sapiens, UniProt P43220); assay: Functional assay-cAMP synthesis, luciferase reporter in HEK293 cells co-transfected with GLP-1 receptor; type: cell-based; settings: for GLP 1 Receptor Relative Potency (%): Table 11, relative to GLP-1-VKGG30 (SEQ ID NO: 527) = 100; for Percent Potency Relative to Native Ligand GLP-1Rec: relative to native GLP-1
T2 construct: expressed in transfected cells; host or cells: HEK293
T2 sequence (P43220 24-463, species assumed): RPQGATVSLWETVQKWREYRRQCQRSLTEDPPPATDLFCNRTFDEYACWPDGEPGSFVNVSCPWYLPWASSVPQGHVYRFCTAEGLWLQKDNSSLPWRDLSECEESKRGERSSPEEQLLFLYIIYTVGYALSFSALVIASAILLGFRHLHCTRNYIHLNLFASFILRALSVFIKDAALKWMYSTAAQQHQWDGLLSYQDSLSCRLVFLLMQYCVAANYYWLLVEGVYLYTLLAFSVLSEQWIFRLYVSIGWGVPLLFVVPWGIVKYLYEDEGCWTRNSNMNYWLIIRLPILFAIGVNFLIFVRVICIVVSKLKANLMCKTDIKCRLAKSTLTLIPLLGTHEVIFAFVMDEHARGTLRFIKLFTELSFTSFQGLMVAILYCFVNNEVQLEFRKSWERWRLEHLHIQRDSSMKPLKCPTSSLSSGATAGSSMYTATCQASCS

[1] = read-out: cAMP Induction Glucagon Receptor EC50, Table 3, pegylated glucagon analogs
[2] = Glucagon Receptor EC50(nM), Table 10, GLP-1 17-26 glucagon analogs

HX2QGT FTSDY SKYLD ERAAK DFVC*W LMNTa (H[Aib]QGTFTSDYSKYLDERAAKDFVC(PEG)WLMNT-NH2; reading uncertain) [E16, K20AIB2, A18 Cys24 (SEQ ID NO: 492), X2=AIB; C* is Cys attached to PEG in the tested form]
Parent w/PEG % Potency Relative to Native GR (glucagon receptor): 1.1% | Parent w/PEG % Potency Relative to Native GLP-1R (GLP-1 receptor; Table 12, pegylated peptide): 73.5%

Glucagon Cys^17 Mal-PEG-5K [Glucagon C17 PEG 5K]
EC50 (glucagon receptor; [1]): 0.82 ± 0.15 nM

HX2QGT FTSDY SKYLD ERAAK DFVC*W LMNGG PSSGA PPPSa (H[Aib]QGTFTSDYSKYLDERAAKDFVC(PEG)WLMNGGPSSGAPPPS-NH2; reading uncertain) [X2=AIB; C* is Cys attached to PEG in the tested form]
Parent w/PEG % Potency Relative to Native GR (glucagon receptor): 0.1% | Parent w/PEG % Potency Relative to Native GLP-1R (GLP-1 receptor; Table 12, pegylated peptide): 88.5%

Glucagon Cys^24 maleimido,PEG-3.4K-dimer [Glucagon C24 Dimer]
EC50 (glucagon receptor; [1]): 0.1 ± 0.05 nM

CSCC[C@H](NC(=O)[C@H](CC(C)C)NC(=O)[C@H](Cc1c[nH]c2ccccc12)NC(=O)[C@H](CCC(N)=O)NC(=O)[C@@H](NC(=O)[C@H](Cc1ccccc1)NC(=O)[C@H](CC(=O)O)NC(=O)[C@H](CCC(N)=O)NC(=O)[C@H](C)NC(=O)[C@H](CCCNC(=N)N)NC(=O)[C@H](CCCNC(=N)N)NC(=O)[C@H](CO)NC(=O)[C@H](CC(=O)O)NC(=O)[C@H](CC(C)C)NC(=O)[C@H](Cc1ccc(O)cc1)NC(=O)[C@H](CCCCN)NC(=O)[C@H](CO)NC(=O)[C@H](Cc1ccc(O)cc1)NC(=O)[C@H](CC(=O)O)NC(=O)[C@H](CO)NC(=O)[C@@H](NC(=O)[C@H](Cc1ccccc1)NC(=O)[C@@H](NC(=O)CNC(=O)[C@H](CCC(N)=O)NC(=O)[C@H](CO)NC(=O)[C@@H](N)Cc1c[nH]cn1)[C@@H](C)O)[C@@H](C)O)C(C)C)C(=O)N[C@@H](CC(=O)O)C(=O)NCC(=O)NCC(=O)N1CCC[C@H]1C(=O)N[C@@H](CO)C(=O)N[C@@H](CO)C(=O)NCC(=O)N[C@@H](C)C(=O)N1CCC[C@H]1C(=O)N1CCC[C@H]1C(=O)N1CCC[C@H]1C(=O)N[C@@H](CO)C(N)=O [-MDGG^30 PSSGAPPPS (SEQ ID NO: 525)]
EC50 (GLP-1 receptor): 0.13 nM

Glucagon Cys^29 Mal-PEG-5K [Glucagon C29 PEG 5K]
EC50 (glucagon receptor; [1]): 0.96 ± 0.07 nM

HX2QGT FTSDY SKYLD ERRAK DFVC*W LMNTa (H[Aib]QGTFTSDYSKYLDERRAKDFVCWLMNT-NH2; lactam (positions not given here); also: optional PEG on Cys24) [X2=AIB; C* is Cys or Cys attached to PEG]
Parent w/PEG % Potency Relative to Native GR (glucagon receptor): 15.8% | Parent w/o PEG % Potency Relative to Native GR (glucagon receptor): 108.3% | Parent w/PEG % Potency Relative to Native GLP-1R (GLP-1 receptor): 31.0% | Parent w/o PEG % Potency Relative to Native GLP-1R (GLP-1 receptor): 96.9%

HX2QGT FTSDY SKYLD EQAAK EFIC*W LMNGG PSSGA PPPSa (H[Aib]QGTFTSDYSKYLDEQAAKEFICWLMNGGPSSGAPPPS-NH2; lactam (positions not given here); also: optional PEG on Cys24) [X2=AIB; C* is Cys or Cys attached to PEG]
Parent w/PEG % Potency Relative to Native GR (glucagon receptor): 1.4% | Parent w/o PEG % Potency Relative to Native GR (glucagon receptor): 25.2% | Parent w/PEG % Potency Relative to Native GLP-1R (GLP-1 receptor): 96.4% | Parent w/o PEG % Potency Relative to Native GLP-1R (GLP-1 receptor): 381.5%

HSQGTFTSDYSKYLDEQAAKEFIAWLVKG-NH2 [E16 GLP(17-29)-NH2, HSQGTFTSDYSKYLDEQAAKEFIAW LVKGa]
EC50 (glucagon receptor; [2]): 0.46 nM | EC50 (GLP-1 receptor): 0.01 nM

CC[C@H](C)[C@H](NC(=O)[C@H](Cc1ccccc1)NC(=O)[C@H](CCC(=O)O)NC(=O)[C@H](CCCCN)NC(=O)[C@H](C)NC(=O)[C@H](C)NC(=O)[C@H](CCC(N)=O)NC(=O)CNC(=O)[C@H](CCC(=O)O)NC(=O)[C@H](CC(C)C)NC(=O)[C@H](Cc1ccc(O)cc1)NC(=O)[C@H](CO)NC(=O)[C@H](CO)NC(=O)[C@@H](NC(=O)[C@H](CC(=O)O)NC(=O)[C@H](CO)NC(=O)[C@@H](NC(=O)[C@H](Cc1ccccc1)NC(=O)[C@@H](NC(=O)CNC(=O)[C@H](CCC(=O)O)NC(=O)[C@H](C)NC(=O)[C@@H](N)Cc1c[nH]cn1)[C@@H](C)O)[C@@H](C)O)C(C)C)C(=O)N[C@@H](C)C(=O)N[C@@H](Cc1c[nH]c2ccccc12)C(=O)N[C@@H](CC(C)C)C(=O)N[C@H](C(=O)N[C@@H](CCCCN)C(=O)NCC(=O)NCC(N)=O)C(C)C [GLP-1-VKGG^30 (SEQ ID NO: 527), HAEGTFTSDVSSYLEGQAAKEFIAW LVKGGa, reference compound]
GLP 1 Receptor Relative Potency (%) (GLP-1 receptor): 100% | EC50 (GLP-1 receptor; read-out: GLP 1 Receptor EC50): 0.025 nM

X1SQGT FTSDY SKYLD ERRAK DFVC*W LMNGG PSSGA PPPSa ([DMIA]SQGTFTSDYSKYLDERRAKDFVCWLMNGGPSSGAPPPS-NH2; lactam (positions not given here); not fully specified; reading uncertain) [X1=DMIA; C* is Cys or Cys attached to PEG]
Parent w/PEG % Potency Relative to Native GR (glucagon receptor): 12.6% | Parent w/o PEG % Potency Relative to Native GR (glucagon receptor): 116.0% | Parent w/PEG % Potency Relative to Native GLP-1R (GLP-1 receptor): 11.3% | Parent w/o PEG % Potency Relative to Native GLP-1R (GLP-1 receptor): 78.3%

HX2QGT FTSDY SKYLD EQAAK EFIC*W LMNGG PSSGA PPPSa (H[Aib]QGTFTSDYSKYLDEQAAKEFICWLMNGGPSSGAPPPS-NH2; also: optional PEG on Cys24) [X2=AIB; C* is Cys or Cys attached to PEG]
Parent w/PEG % Potency Relative to Native GR (glucagon receptor): 0.2% | Parent w/o PEG % Potency Relative to Native GR (glucagon receptor): 2.5% | Parent w/PEG % Potency Relative to Native GLP-1R (GLP-1 receptor; Table 12, pegylated peptide): 95.4% | Parent w/o PEG % Potency Relative to Native GLP-1R (GLP-1 receptor; Table 12, peptide without PEG): 457.8%

HSQGTFTSDYSKYLDEQAAKEFIAWLMNT-NH2 [E16 GLP(17-26)Glu(27-29)-NH2, HSQGTFTSDYSKYLDEQAAKEFIAW LMNTa]
EC50 (glucagon receptor; [2]): 0.076 nM

HX2QGT FTSDYSKYLDEQAAKEFIAWLMNGGPSSGAPPPSC*a (H[Aib]QGTFTSDYSKYLDEQAAKEFIAWLMNGGPSSGAPPPSC-NH2; also: optional PEG on Cys40) [X2=AIB; C* is Cys or Cys attached to PEG]
Parent w/PEG % Potency Relative to Native GR (glucagon receptor): 0.3% | Parent w/o PEG % Potency Relative to Native GR (glucagon receptor): 2.2% | Parent w/PEG % Potency Relative to Native GLP-1R (GLP-1 receptor; Table 12, pegylated peptide): 68.8% | Parent w/o PEG % Potency Relative to Native GLP-1R (GLP-1 receptor; Table 12, peptide without PEG): 359.1%

HSQGTFTSDYSKYLDERRAKDFVQW LMNTa [E16, K20 Gluc-NH2] (HSQGTFTSDYSKYLDERRAKDFVQWLMNT-NH2)
Percent Potency Relative to Native Ligand GRec (glucagon receptor; Table 5): 130.1% | Percent Potency Relative to Native Ligand GRec (glucagon receptor; Table 9, E16/lactam analogs): 130.1% | Percent Potency Relative to Native Ligand GLP-1Rec (GLP-1 receptor; Table 5): 41.5% | Percent Potency Relative to Native Ligand GLP-1Rec (GLP-1 receptor; Table 9, E16/lactam analogs): 41.5%

HX2QGT FTSDYSKYLDEQAAKEFIAWLMNGGPSSGAPPPSC*a (H[Aib]QGTFTSDYSKYLDEQAAKEFIAWLMNGGPSSGAPPPSC-NH2; lactam (positions not given here); also: optional PEG on Cys40) [X2=AIB; C* is Cys or Cys attached to PEG]
Parent w/PEG % Potency Relative to Native GR (glucagon receptor): 3.2% | Parent w/o PEG % Potency Relative to Native GR (glucagon receptor): 14.2% | Parent w/PEG % Potency Relative to Native GLP-1R (GLP-1 receptor): 63.6% | Parent w/o PEG % Potency Relative to Native GLP-1R (GLP-1 receptor): 169.6%

X1SQGT FTSDY SKYLD EQAAK EFIC*W LMNTa
Parent w/PEG % Potency Relative to Native GR (glucagon receptor): 19.1% | Parent w/o PEG % Potency Relative to Native GR (glucagon receptor): 160.7% | Parent w/PEG % Potency Relative to Native GLP-1R (GLP-1 receptor): 12.5% | Parent w/o PEG % Potency Relative to Native GLP-1R (GLP-1 receptor): 82.5%

CSCC[C@H](NC(=O)[C@H](CC(C)C)NC(=O)[C@H](Cc1c[nH]c2ccccc12)NC(=O)[C@H](CCC(N)=O)NC(=O)[C@@H](NC(=O)[C@H](Cc1ccccc1)NC(=O)[C@H](CC(=O)O)NC(=O)[C@H](CCC(N)=O)NC(=O)[C@H](C)NC(=O)[C@H](CCCNC(=N)N)NC(=O)[C@H](CCCNC(=N)N)NC(=O)[C@H](CO)NC(=O)[C@H](CC(=O)O)NC(=O)[C@H](CC(C)C)NC(=O)[C@H](Cc1ccc(O)cc1)NC(=O)[C@H](CCCCN)NC(=O)[C@H](CO)NC(=O)[C@H](Cc1ccc(O)cc1)NC(=O)[C@H](CC(=O)O)NC(=O)[C@H](CO)NC(=O)[C@@H](NC(=O)[C@H](Cc1ccccc1)NC(=O)[C@@H](NC(=O)CNC(=O)[C@H](CCC(N)=O)NC(=O)[C@H](CO)NC(=O)[C@@H](N)Cc1c[nH]cn1)[C@@H](C)O)[C@@H](C)O)C(C)C)C(=O)N[C@@H](CC(N)=O)C(=O)NCC(=O)NCC(=O)N1CCC[C@H]1C(=O)N[C@@H](CO)C(=O)N[C@@H](CO)C(=O)NCC(=O)N[C@@H](C)C(=O)N1CCC[C@H]1C(=O)N1CCC[C@H]1C(=O)N1CCC[C@H]1C(=O)N[C@@H](CO)C(N)=O [-MNGG^30 PSSGAPPPS (SEQ ID NO: 522)]
EC50 (GLP-1 receptor): 0.31 nM | GLP 1 Receptor Relative Potency (%) (GLP-1 receptor): 8%

CSCC[C@H](NC(=O)[C@H](CC(C)C)NC(=O)[C@H](Cc1c[nH]c2ccccc12)NC(=O)[C@H](CCC(N)=O)NC(=O)[C@@H](NC(=O)[C@H](Cc1ccccc1)NC(=O)[C@H](CC(=O)O)NC(=O)[C@H](CCCCN)NC(=O)[C@H](C)NC(=O)[C@H](CCCNC(=N)N)NC(=O)[C@H](CCCNC(=N)N)NC(=O)[C@H](CCC(=O)O)NC(=O)[C@H](CC(=O)O)NC(=O)[C@H](CC(C)C)NC(=O)[C@H](Cc1ccc(O)cc1)NC(=O)[C@H](CCCCN)NC(=O)[C@H](CO)NC(=O)[C@H](Cc1ccc(O)cc1)NC(=O)[C@H](CC(=O)O)NC(=O)[C@H](CO)NC(=O)[C@@H](NC(=O)[C@H](Cc1ccccc1)NC(=O)[C@@H](NC(=O)CNC(=O)[C@H](CCC(N)=O)NC(=O)[C@H](CO)NC(=O)[C@@H](N)Cc1c[nH]cn1)[C@@H](C)O)[C@@H](C)O)C(C)C)C(=O)N[C@@H](CC(=O)O)C(=O)NCC(=O)NCC(=O)N1CCC[C@H]1C(=O)N[C@@H](CO)C(=O)N[C@@H](CO)C(=O)NCC(=O)N[C@@H](C)C(=O)N1CCC[C@H]1C(=O)N1CCC[C@H]1C(=O)N1CCC[C@H]1C(=O)N[C@@H](CO)C(N)=O
EC50 (GLP-1 receptor): 0.02 nM

Oxyntomodulin C24 PEG 20K: oxyntomodulin Cys24 pegylated with 20K PEG
EC50 (glucagon receptor; read-out: cAMP Induction Glucagon Receptor EC50, Table 2, analogs with C-terminus extension): 0.97 ± 0.04 nM

SEQ ID NO: 22: glucagon analog substituting the native glutamine at position 3 with glutamic acid
selectivity for the GLP-1 receptor (GLP-1 receptor; versus glucagon receptor): approximately a tenfold selectivity
